The term Km denotes the substrate concentration at which the rate is half of its maximum.

Substrate in data set [1]: O=C(NO)c1ccc(Cn2c(=O)n(CCc3ccccc3)c(=O)c3cccnc32)cc1
As to conditions: Homo sapiens.
Description: (§1) Inhibition of human HDAC6 CD2 expressed in Escherichia coli BL21 (RIL) assessed as substrate Km using Boc-Lys (Ac)-AMC as substrate preincubated for 10 mins followed by substrate addition and measured after 30 mins by fluorescence assay

Substrate in data set [2]: COc1ccccc1CCn1c(=O)c2ccccc2n(Cc2ccc(C(=O)NO)cc2)c1=O
As to conditions: Homo sapiens.
Description: as §1

Substrate in data set [3]: CN1CCc2c(c3ccccc3n2Cc2ccc(C(=O)NO)cc2)C1
As to conditions: Homo sapiens; Sf9.
Description: (§2) Inhibition of human full-length recombinant HDAC6 expressed in baculovirus infected Sf9 insect cells assessed as substrate Km using Boc-Lys (Ac)-AMC as substrate preincubated for 10 mins followed by substrate addition and measured after 30 mins by fluorescence assay

Substrate in data set [4]: O=C(NO)c1ccc(Cn2c(=O)n(CCc3ccccc3)c(=O)c3cccnc32)cc1
To be noted: Homo sapiens; Sf9.
Description: as §2

Substrate in data set [5]: COc1ccccc1CCn1c(=O)c2ccccc2n(Cc2ccc(C(=O)NO)cc2)c1=O
To be noted: Homo sapiens; Sf9.
Description: as §2

Substrate in data set [6]: O=C(NO)c1ccc(Cn2c(=O)n(CCc3ccccc3)c(=O)c3ccccc32)cc1
To be noted: Homo sapiens.
Description: Competitive inhibition of human HDAC6 CD2 expressed in Escherichia coli BL21 (RIL) assessed as substrate Km using Boc-Lys (Ac)-AMC as substrate preincubated for 10 mins followed by substrate addition and measured after 30 mins by fluorescence assay

Substrate in data set [7]: O=C(NO)c1ccc(Cn2c(=O)n(CCc3ccccc3)c(=O)c3ccccc32)cc1
Description: Competitive inhibition of human full-length recombinant HDAC6 expressed in baculovirus infected Sf9 insect cells assessed as substrate Km using Boc-Lys (Ac)-AMC as substrate preincubated for 10 mins followed by substrate addition and measured after 30 mins by fluorescence assay
As to conditions: Homo sapiens; Sf9.

B1: Protein deacetylase HDAC6 (Homo sapiens), Q9UBN7 (protein)
chain: MTSTGQDSTTTRQRRSRQNPQSPPQDSSVTSKRNIKKGAVPRSIPNLAEVKKKGKMKKLGQAMEEDLIVGLQGMDLNLEAEALAGTGLVLDEQLNEFHCLWDDSFPEGPERLHAIKEQLIQEGLLDRCVSFQARFAEKEELMLVHSLEYIDLMETTQYMNEGELRVLADTYDSVYLHPNSYSCACLASGSVLRLVDAVLGAEIRNGMAIIRPPGHHAQHSLMDGYCMFNHVAVAARYAQQKHRIRRVLIVDWDVHHGQGTQFTFDQDPSVLYFSIHRYEQGRFWPHLKASNWSTTGFGQGQGYTINVPWNQVGMRDADYIAAFLHVLLPVALEFQPQLVLVAAGFDALQGDPKGEMAATPAGFAQLTHLLMGLAGGKLILSLEGGYNLRALAEGVSASLHTLLGDPCPMLESPGAPCRSAQASVSCALEALEPFWEVLVRSTETVERDNMEEDNVEESEEEGPWEPPVLPILTWPVLQSRTGLVYDQNMMNHCNLWDSHHPEVPQRILRIMCRLEELGLAGRCLTLTPRPATEAELLTCHSAEYVGHLRATEKMKTRELHRESSNFDSIYICPSTFACAQLATGAACRLVEAVLSGEVLNGAAVVRPPGHHAEQDAACGFCFFNSVAVAARHAQTISGHALRILIVDWDVHHGNGTQHMFEDDPSVLYVSLHRYDHGTFFPMGDEGASSQIGRAAGTGFTVNVAWNGPRMGDADYLAAWHRLVLPIAYEFNPELVLVSAGFDAARGDPLGGCQVSPEGYAHLTHLLMGLASGRIILILEGGYNLTSISESMAACTRSLLGDPPPLLTLPRPPLSGALASITETIQVHRRYWRSLRVMKVEDREGPSSSKLVTKKAPQPAKPRLAERMTTREKKVLEAGMGKVTSASFGEESTPGQTNSETAVVALTQDQPSEAATGGATLAQTISEAAIGGAMLGQTTSEEAVGGATPDQTTSEETVGGAILDQTTSEDAVGGATLGQTTSEEAVGGATLAQTTSEAAMEGATLDQTTSEEAPGGTELIQTPLASSTDHQTPPTSPVQGTTPQISPSTLIGSLRTLELGSESQGASESQAPGEENLLGEAAGGQDMADSMLMQGSRGLTDQAIFYAVTPLPWCPHLVAVCPIPAAGLDVTQPCGDCGTIQENWVCLSCYQVYCGRYINGHMLQHHGNSGHPLVLSYIDLSAWCYYCQAYVHHQALLDVKNIAHQNKFGEDMPHPH
In the case of B1, the Km in data set [1] amounted to 35.3 µM; in data set [2], 32.5 µM; in data set [3], 29.1 µM; in data set [4], 21.8 µM; in data set [5], 34.6 µM; in data set [6] it was 29.8 µM. The Km in data set [7] is 16.7 µM.

The values are drawn from ChEMBL document CHEMBL4330076, “Quinazolin-2,4-dione-Based Hydroxamic Acids as Selective Histone Deacetylase-6 Inhibitors for Treatment of Non-Small Cell Lung Cancer” (J Med Chem, 2019).
